Data published in patent US20190382475A1 (Novartis, published 2019).

How the values were obtained:
[1] = biological target: recombinant human IL-17 (human, UniProt Q16552 24-155, limits assumed); assay: SPR, BIAcore T200, antibody on chip, recombinant human antigen as analyte, steady state analysis; first value taken for antibody 1 arm (IL-17); IL-17 arm (Antibody 1), first value of the cell
Method: (§1) A direct binding assay was performed to characterize the binding of the engineered antibodies against their antigen. Kinetic binding affinity constants (KD) were measured on protein-A captured protein using recombinant human antigens as analyte. Measurements were conducted on a BIAcore® T200 (GE Healthcare, Glattbrugg, Switzerland) at room temperature. […] To serve as reference, one flow cell was blank immobilized. Binding data were acquired by subsequent injection of analyte dilutions series on the reference and measuring flow cell. Zero concentration samples (running buffer only) were included to allow double referencing during data evaluation. For data evaluation, doubled referenced sensograms were used and analyzed by steady state analysis to generate the equilibrium dissociation constant (KD).

[2] = biological target: T1, recombinant human HER3 (human, UniProt P21860 20-643, limits assumed); assay: SPR, BIAcore T200, antibody on chip, recombinant human antigen as analyte, steady state analysis; second value taken for antibody 2 arm (HER3); HER3 arm (Antibody 2), second value of the cell
Method: as §1

[3] = biological target: T2, recombinant human c-Kit (human, UniProt P10721 26-520, limits assumed); assay: SPR, BIAcore T200, antibody on chip, recombinant human antigen as analyte, steady state analysis; first value taken for antibody 1 arm (c-Kit); c-Kit arm (Antibody 1), first value of the cell
Method: as §1

[4] = biological target: T2, recombinant human c-Kit; assay: SPR, BIAcore T200, antibody on chip, recombinant human antigen as analyte, steady state analysis; second value taken for antibody 2 arm (c-Kit); c-Kit arm (Antibody 2), second value of the cell
Method: as §1

[5] = biological target: T1, recombinant human HER3; assay: SPR, BIAcore T200, antibody on chip, recombinant human antigen as analyte, steady state analysis
Method: as §1

[6] = biological target: T2, recombinant human c-Kit; assay: as above
Method: as §1

| Binder | Kd [1] [nM] | Kd [2] [nM] | other results |
| --- | --- | --- | --- |
| Mutated IL-17/Mutated HER3 (b) heterodimeric antibody (bispecific antibody, IgG1 bispecific) heavy 1: not shown light 1: AIQLTQSPSSLSASVGDRVTITCRPSQGINWELAWYQDKPGKAPKLLIYDASSLEQGVPSRFSGSGSGTDFTLTISSLQPEDFATYYCQQFNSYPLTFGGGTKVEIKRTVAAPSVFIFPPSDEKLKSGTASVVCLLNNFYPREAKVQWKVDNALQSGNSQESVTEQDSDDSTYSLSSTLTLSKADYEKHKVYACEVTHQGLSSPVTKSFNRGEC heavy 2: not shown light 2: DIQMTQSPSSLSASVGDRVTITCRASQGISNWLAWYQKKPGKAPKLLIYGASSLQSGVPSRFSGSGSGTDFTLTISSLQPEDFATYYCQQYSSFPTTFGQGTKVEIKRTVAAPSVFIFPPSDEDLKSGTASVVCLLNNFYPREAKVQWKVDNALQSGNSQESVTEQDSKDSTYSLSSTLTLSKADYEKHKVYACEVTHQGLSSPVTKSFNRGEC | 0.01 | 4 | – |
| Mutated c-Kit/Mutated HER3 (a) heterodimeric antibody (bispecific antibody, IgG1 bispecific) heavy 1: not shown light 1: DIQMTQSPSSLSASVGDRVTITCRASQSISSYLNWYQKKPGKAPKLLIYYTSRLQSGVPSRFSGSGSGTDFTLTISSLQPEDFATYYCQQGRRLWSFGGGTKVEIKRTVAAPSVFIFPPSDEDLKSGTASVVCLLNNFYPREAKVQWKVDNALQSGNSQESVTEQDSKDSTYSLSSTLTLSKADYEKHKVYACEVTHQGLSSPVTKSFNRGEC heavy 2: not shown light 2: DIQMTQSPSSLSASVGDRVTITCRASQGISNWLAWYQDKPGKAPKLLIYGASSLQSGVPSRFSGSGSGTDFTLTISSLQPEDFATYYCQQYSSFPTTFGQGTKVEIKRTVAAPSVFIFPPSDEKLKSGTASVVCLLNNFYPREAKVQWKVDNALQSGNSQESVTEQDSDDSTYSLSSTLTLSKADYEKHKVYACEVTHQGLSSPVTKSFNRGEC | – | 0.4 | Kd [3]: 22 nM |
| Mutated IL-17/Mutated c-Kit heterodimeric antibody (bispecific antibody, IgG1 bispecific) heavy 1: not shown light 1: AIQLTQSPSSLSASVGDRVTITCRPSQGINWELAWYQDKPGKAPKLLIYDASSLEQGVPSRFSGSGSGTDFTLTISSLQPEDFATYYCQQFNSYPLTFGGGTKVEIKRTVAAPSVFIFPPSDEKLKSGTASVVCLLNNFYPREAKVQWKVDNALQSGNSQESVTEQDSDDSTYSLSSTLTLSKADYEKHKVYACEVTHQGLSSPVTKSFNRGEC heavy 2: not shown light 2: DIQMTQSPSSLSASVGDRVTITCRASQSISSYLNWYQKKPGKAPKLLIYYTSRLQSGVPSRFSGSGSGTDFTLTISSLQPEDFATYYCQQGRRLWSFGGGTKVEIKRTVAAPSVFIFPPSDEDLKSGTASVVCLLNNFYPREAKVQWKVDNALQSGNSQESVTEQDSKDSTYSLSSTLTLSKADYEKHKVYACEVTHQGLSSPVTKSFNRGEC | 0.07 | – | Kd [4]: 20 nM |
| anti-HER3 antibody, parental IgG1 (antibody, V domains shown, Parental, unmutated IgG1) VH: EVQLLESGGGLVQPGGSLRLSCAASGFTFSSYAMSWVRQAPGKGLEWVSVTGAVGRSTYYPDSVKGRFTISRDNSKNTLYLQMNSLRAEDTAVYYCARWGDEGFDIWGQGTLVTVSS VL: DIQMTQSPSSLSASVGDRVTITCRASQGISNWLAWYQQKPGKAPKLLIYGASSLQSGVPSRFSGSGSGTDFTLTISSLQPEDFATYYCQQYSSFPTTFGQGTKVEIKR | – | – | Kd [5]: 1 nM |
| anti-c-Kit antibody, parental IgG1 (antibody, V domains shown, Parental, unmutated IgG1, VH3/Vk1, made in-house) VH: EVQLVESGGGLVQPGGSLRLSCAASGFAFSGYYMAWVRQAPGKGLEWVANINYPGSSTYYLDSVKGRFTISRDNAKNSLYLQMNSLRAEDTAVYYCARGDYYGTTYWYFDVWGQGTTVTVSS VL: DIQMTQSPSSLSASVGDRVTITCRASQSISSYLNWYQQKPGKAPKLLIYYTSRLQSGVPSRFSGSGSGTDFTLTISSLQPEDFATYYCQQGRRLWSFGGGTKVEIKR | – | – | Kd [6]: 20 nM |
